From doi:10.1101/2023.04.01.535202, “Three small partner proteins facilitate the type VII-dependent secretion export of an antibacterial nuclease” (bioRxiv, 2023)

Target: the molecule itself
Assay: cross-linking; purified complex from the major SEC peak at 0.5 mg/ml in 50 mM HEPES pH 7.5, 150 mM NaCl, 0.1% glutaraldehyde for 30 minutes at room temperature, quenched with tris; SEC and SDS-PAGE

| Protein | stoichiometry N |
| --- | --- |
| EsaDEG complex (complex, EsaD nuclease toxin of S. aureus, as m1; EsaE of S. aureus, as m2; EsaG of S. aureus, as m3; Cross-linked with glutaraldehyde for the experiment on dimers-of-trimers and for cryo-EM; also called EsaDEG trimer; not shown: His6, C-terminal, kept; copies: + +) chain 1: MTKDIEYLTADYDNEKSSIQSVIDAIEGQDFLDVDTTMDDAVSDVSSLDEDGAISLTSSVVGPQGSKLMGYYQNELYDYASQLDSKMKEIIDTPFIEDIDKAFKGITNVKLENILIKNGGGHGRDTYGASGKIAKGDAKKSDSDVYSIDEILKSDQEFVKVIDQHYKEMKKEDKKLSKSDFEKMMTQGASCDYMTVAEAEELEEQKKKEEAIEIAALAGMVVLSCINPVAGAVAIGAYSAYSAANAATGKNIVTGRKLSKEERIMEGLSLIPLPGMGFLKGAGKSLMKLGFKGGEKFAVKTGLQKTMQQAVSRISPKMGMMKNSVLNQSRNFAQNTHVGQMLSNMRGQATHTVQQSRNWIGQQAQNVKRIVNNGLDKEIAHPFKQQLAPAGMGGIKFAETTTLRNMGQNIKRAVTPQNHVTHGPKDSMVRSEGKHSISSHEMNSSKYVESPNYTKVEFGEHYARLRPKKLKANIEYTTPTGHIYRTDHKGRIKEVYVDNLSLKDGDRNSHAQRTVGGEDRLPDDDGGALIARMFGGSKDIDNLVAQSKFINRPFKEKGHWYNLEKEWQEFLNSGKEVKNIKMEVKYSGNSQRPTIFKVEYEINGERNIRRILNK chain 2: MKDVKRIDYFSYEELTILGGSKLPLVNFELFDPSNFEEAKAALIEKELVTENDKLTDAGFKVATLVREYISAIVNIRINDMYFAPFSYEKDEYILLSRFKNNGFQIRIINKDIAWWSIVQSYPLLMRQEKSNDWDFKQIDDETLENLNNESIDTIGRVLEIEIYNHQGDPQQSLYNIYEQNDLLFIRYPLKDKVLNVHIGVINTFIRELFGFDTDENHINKAEE chain 3: MTFEEKLSKIYNEIANEISSMIPVEWEKVYTMAYIDDGGGEVFFNYTKPGSDDLNYYTNIPKEYNISVQVFDDLWMDLYDLFEELRDLFKEEDLEPWTSCEFDFTREGELKVSFDYIDWINSEFGQIGRQNYYKYRKFGILPETEYEINKVKEIEQYIKELEE | 2 |
| EsaDEG-EsxBCD complex (complex, EsaD nuclease toxin of S. aureus, as m1; EsaE of S. aureus, as m2; EsaG of S. aureus, as m3; EsxB of S. aureus, as m4; EsxC of S. aureus, as m5; EsxD of S. aureus, as m6; Cross-linked with glutaraldehyde for the experiment on dimers-of-hexamers and for cryo-EM; also called EsaDEG-EsxBCD hexamer; EsxBCD-EsaDEG complex; not shown: His6, C-terminal, kept; twin-strep, C-terminal, kept; copies: + + + …) chain 1: MTKDIEYLTADYDNEKSSIQSVIDAIEGQDFLDVDTTMDDAVSDVSSLDEDGAISLTSSVVGPQGSKLMGYYQNELYDYASQLDSKMKEIIDTPFIEDIDKAFKGITNVKLENILIKNGGGHGRDTYGASGKIAKGDAKKSDSDVYSIDEILKSDQEFVKVIDQHYKEMKKEDKKLSKSDFEKMMTQGASCDYMTVAEAEELEEQKKKEEAIEIAALAGMVVLSCINPVAGAVAIGAYSAYSAANAATGKNIVTGRKLSKEERIMEGLSLIPLPGMGFLKGAGKSLMKLGFKGGEKFAVKTGLQKTMQQAVSRISPKMGMMKNSVLNQSRNFAQNTHVGQMLSNMRGQATHTVQQSRNWIGQQAQNVKRIVNNGLDKEIAHPFKQQLAPAGMGGIKFAETTTLRNMGQNIKRAVTPQNHVTHGPKDSMVRSEGKHSISSHEMNSSKYVESPNYTKVEFGEHYARLRPKKLKANIEYTTPTGHIYRTDHKGRIKEVYVDNLSLKDGDRNSHAQRTVGGEDRLPDDDGGALIARMFGGSKDIDNLVAQSKFINRPFKEKGHWYNLEKEWQEFLNSGKEVKNIKMEVKYSGNSQRPTIFKVEYEINGERNIRRILNK chain 2: MKDVKRIDYFSYEELTILGGSKLPLVNFELFDPSNFEEAKAALIEKELVTENDKLTDAGFKVATLVREYISAIVNIRINDMYFAPFSYEKDEYILLSRFKNNGFQIRIINKDIAWWSIVQSYPLLMRQEKSNDWDFKQIDDETLENLNNESIDTIGRVLEIEIYNHQGDPQQSLYNIYEQNDLLFIRYPLKDKVLNVHIGVINTFIRELFGFDTDENHINKAEE chain 3: MTFEEKLSKIYNEIANEISSMIPVEWEKVYTMAYIDDGGGEVFFNYTKPGSDDLNYYTNIPKEYNISVQVFDDLWMDLYDLFEELRDLFKEEDLEPWTSCEFDFTREGELKVSFDYIDWINSEFGQIGRQNYYKYRKFGILPETEYEINKVKEIEQYIKELEE chain 4: MGGYKGIKADGGKVDQAKQLAAKTAKDIEACQKQTQQLAEYIEGSDWEGQFANKVKDVLLIMAKFQEELVQPMADHQKAIDNLSQNLAKYDTLSIKQGLDRVNP chain 5: MNFNDIETMVKSKFKDIKKHAEEIAHEIEVRSGYLRKAEQYKRLEFNLSFALDDIESTAKDVQTAKSSANKDSVTVKGKAPNTLYIEKRNLMKQKLEMLGEDIDKNKESLQKAKEIAGEKASEYFNKAMN chain 6: MTLSGKISVKAETIAHVVKELESISQKYDEIAQNFGKIAQLNYYSSEKAAHSMENGYSSAATVISGLKGPLSTLGGGVMNSAQKFFEADEHWGTEFAKLYYNIEG | 2 |
